Earlier results in article PMC6916721.

Tests used:
His95 = His95 (UniProt position 121, YHCTPHPFMRG); conditions: reduced (Cu+) amicyanin, free (not in complex with MADH)
[1] = target: Amicyanin, reduced (Cu+) form (UniProt P22364); conditions: pH
Chain of Amicyanin, reduced (Cu+) form (P22364 whole entry): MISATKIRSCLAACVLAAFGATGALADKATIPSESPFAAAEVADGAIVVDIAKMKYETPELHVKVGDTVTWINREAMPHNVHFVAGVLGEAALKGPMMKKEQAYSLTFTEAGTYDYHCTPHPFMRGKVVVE

## Amicyanin (Paracoccus denitrificans)
His95
  pKa: 7.7

## Methylamine dehydrogenase (MADH)
[1]
  pKa, His95 of amicyanin (copper ligand, reduced Cu+ state): 7.7 pH units
